Laboratory results: publication PMC9482650, “Quantitative fragmentomics allow affinity mapping of interactomes” (Nature Communications, 2022)

Legend:
Assay in all cases: holdup assay
Design in all cases: key: below the threshold = too weak to quantify, mostly under pKd 3.1 to 4
APBA2_1, Q99767 = target: T1, APBA2_1, Q99767
T1 sequence (Q99767 563-664, limits assumed, looked up): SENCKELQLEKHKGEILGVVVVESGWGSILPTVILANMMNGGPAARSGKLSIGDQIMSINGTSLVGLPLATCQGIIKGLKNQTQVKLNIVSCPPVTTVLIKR

APBA3_1, O96018 = target: T2, APBA3_1, O96018
T2 sequence (O96018 389-490, limits assumed, looked up): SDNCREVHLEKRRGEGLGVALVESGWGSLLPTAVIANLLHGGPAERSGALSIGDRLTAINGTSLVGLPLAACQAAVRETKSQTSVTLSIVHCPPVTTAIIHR

CARD11, Q9BXL7 = target: T3, CARD11, Q9BXL7
T3 sequence (Q9BXL7 662-765, limits assumed, looked up): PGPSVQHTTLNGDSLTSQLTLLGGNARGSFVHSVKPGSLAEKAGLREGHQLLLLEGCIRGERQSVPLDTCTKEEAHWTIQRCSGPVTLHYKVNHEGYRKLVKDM

DLG3_1, Q92796 = target: T4, DLG3_1, Q92796
T4 sequence (Q92796 125-227, limits assumed, looked up): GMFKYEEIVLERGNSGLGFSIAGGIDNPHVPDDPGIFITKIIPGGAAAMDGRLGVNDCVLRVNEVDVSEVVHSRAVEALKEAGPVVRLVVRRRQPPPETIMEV

DLG4_1, P78352 = target: DLG4_1, P78352
Sequence of DLG4_1, P78352 (P78352 62-152): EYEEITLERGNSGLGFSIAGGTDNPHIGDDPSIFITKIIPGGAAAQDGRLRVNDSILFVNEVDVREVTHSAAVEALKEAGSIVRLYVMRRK

FRMPD1, Q5SYB0 = target: T5, FRMPD1, Q5SYB0
T5 sequence (Q5SYB0 52-145, limits assumed, looked up): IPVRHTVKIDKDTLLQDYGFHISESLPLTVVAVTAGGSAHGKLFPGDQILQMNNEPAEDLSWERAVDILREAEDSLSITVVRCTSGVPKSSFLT

FRMPD4, Q14CM0 = target: FRMPD4, Q14CM0
Sequence of FRMPD4, Q14CM0 (Q14CM0 67-160): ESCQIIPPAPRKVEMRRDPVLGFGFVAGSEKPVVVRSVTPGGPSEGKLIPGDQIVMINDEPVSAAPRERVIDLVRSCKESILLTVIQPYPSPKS

GRID2IP_1, A4D2P6 = target: GRID2IP_1, A4D2P6
Sequence of GRID2IP_1, A4D2P6 (A4D2P6 1-87): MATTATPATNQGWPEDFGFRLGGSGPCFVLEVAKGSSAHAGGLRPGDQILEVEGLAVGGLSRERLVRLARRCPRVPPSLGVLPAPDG

GRIP1_5, Q9Y3R0 = target: T6, GRIP1_5, Q9Y3R0
T6 sequence (Q9Y3R0 568-668, limits assumed, looked up): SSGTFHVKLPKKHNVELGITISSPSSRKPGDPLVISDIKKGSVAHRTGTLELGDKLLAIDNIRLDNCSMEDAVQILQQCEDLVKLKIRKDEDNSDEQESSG

GRIP1_7, Q9Y3R0 = target: T7, GRIP1_7, Q9Y3R0
T7 sequence (Q9Y3R0 999-1096, limits assumed, looked up): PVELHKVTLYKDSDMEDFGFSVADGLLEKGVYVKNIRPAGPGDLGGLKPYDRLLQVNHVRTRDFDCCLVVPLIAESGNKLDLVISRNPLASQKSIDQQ

IL16_4, Q14005 = target: IL16_4, Q14005
Sequence of IL16_4, Q14005 (Q14005 1229-1329): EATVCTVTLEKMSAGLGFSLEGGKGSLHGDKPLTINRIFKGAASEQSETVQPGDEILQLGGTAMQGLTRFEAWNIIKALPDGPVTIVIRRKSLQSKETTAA

Inadl_3, Q8NI35 = target: Inadl_3, Q8NI35
Sequence of Inadl_3, Q8NI35 (Q8NI35 359-469): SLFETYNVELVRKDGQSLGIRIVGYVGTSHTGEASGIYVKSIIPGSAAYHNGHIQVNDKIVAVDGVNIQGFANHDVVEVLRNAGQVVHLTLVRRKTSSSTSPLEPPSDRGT

LDB3, O75112 = target: LDB3, O75112
Sequence of LDB3, O75112 (O75112 1-94): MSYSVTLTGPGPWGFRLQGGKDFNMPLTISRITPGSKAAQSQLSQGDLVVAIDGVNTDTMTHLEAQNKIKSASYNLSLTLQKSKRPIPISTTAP

LIN7A, O14910 = target: T8, LIN7A, O14910
T8 sequence (O14910 103-200, limits assumed, looked up): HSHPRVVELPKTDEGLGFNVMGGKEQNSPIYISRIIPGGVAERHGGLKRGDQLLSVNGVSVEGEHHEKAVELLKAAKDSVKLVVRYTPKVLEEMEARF

MAGI2_3, Q86UL8 = target: MAGI2_3, Q86UL8
Sequence of MAGI2_3, Q86UL8 (Q86UL8 600-682): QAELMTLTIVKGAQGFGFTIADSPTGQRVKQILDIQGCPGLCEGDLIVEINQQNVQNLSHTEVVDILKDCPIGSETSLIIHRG

MAGI2_6, Q86UL8 = target: MAGI2_6, Q86UL8
Sequence of MAGI2_6, Q86UL8 (Q86UL8 1141-1229): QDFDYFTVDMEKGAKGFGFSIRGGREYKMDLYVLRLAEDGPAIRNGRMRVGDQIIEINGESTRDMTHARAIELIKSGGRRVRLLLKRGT

MPDZ_12, O75970 = target: T9, MPDZ_12, O75970
T9 sequence (O75970 1857-1958, limits assumed, looked up): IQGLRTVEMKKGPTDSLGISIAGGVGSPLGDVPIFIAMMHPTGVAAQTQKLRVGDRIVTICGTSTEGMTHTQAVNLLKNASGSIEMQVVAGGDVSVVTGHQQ

MPDZ_5, O75970 = target: T10, MPDZ_5, O75970
T10 sequence (O75970 695-796, limits assumed, looked up): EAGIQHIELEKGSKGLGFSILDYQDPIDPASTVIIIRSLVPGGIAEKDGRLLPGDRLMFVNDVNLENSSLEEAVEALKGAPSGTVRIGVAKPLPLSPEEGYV

NHERF3_1, Q5T2W1 = target: T11, NHERF3_1, Q5T2W1
T11 sequence (Q5T2W1 4-100, limits assumed, looked up): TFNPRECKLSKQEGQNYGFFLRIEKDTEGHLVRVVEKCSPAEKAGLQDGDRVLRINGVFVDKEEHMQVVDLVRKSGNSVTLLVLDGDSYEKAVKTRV

NOS1, P29475 = target: NOS1, P29475
Sequence of NOS1, P29475 (P29475 9-101): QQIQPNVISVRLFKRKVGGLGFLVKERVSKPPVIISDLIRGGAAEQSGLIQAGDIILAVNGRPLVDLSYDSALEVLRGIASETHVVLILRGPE

PARD3B_1, Q8TEW8 = target: T12, PARD3B_1, Q8TEW8
T12 sequence (Q8TEW8 196-299, limits assumed, looked up): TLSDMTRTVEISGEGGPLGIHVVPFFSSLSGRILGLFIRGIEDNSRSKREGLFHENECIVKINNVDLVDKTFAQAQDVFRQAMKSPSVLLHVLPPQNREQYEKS

PARD3_3, Q8TEW0 = target: PARD3_3, Q8TEW0
Sequence of PARD3_3, Q8TEW0 (Q8TEW0 582-685): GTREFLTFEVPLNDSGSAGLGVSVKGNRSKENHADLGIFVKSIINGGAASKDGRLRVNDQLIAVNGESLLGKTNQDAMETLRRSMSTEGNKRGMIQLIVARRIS

PDLIM1, O00151 = target: PDLIM1, O00151
Sequence of PDLIM1, O00151 (O00151 1-87): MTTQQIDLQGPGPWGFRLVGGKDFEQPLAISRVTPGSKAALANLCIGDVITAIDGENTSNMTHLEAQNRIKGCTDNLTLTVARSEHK

PDZRN3_1, Q9UPQ7 = target: T13, PDZRN3_1, Q9UPQ7
T13 sequence (Q9UPQ7 244-349, limits assumed, looked up): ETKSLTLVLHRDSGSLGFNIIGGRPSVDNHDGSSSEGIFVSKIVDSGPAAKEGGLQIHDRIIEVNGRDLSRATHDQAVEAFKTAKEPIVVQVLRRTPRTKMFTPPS

[1] = plain residues with an end cap or a label only (N-terminal biotin on a linker: ado-ado)
[2] = plain residues with an end cap or a label only (N-terminal biotin on a linker: ttds)
[3] = plain residues with an end cap or a label only (N-terminal biotin on a linker: ahx)

In the case of GKKSVKHSKI [ACOT6, Q3I5F7], the pKd (APBA2_1, Q99767; [1]) is reported as “below the threshold”, the pKd (APBA3_1, O96018; [1]) is reported as “below the threshold” and the pKd (CARD11, Q9BXL7; [1]) is reported as “below the threshold”. The pKd (DLG3_1, Q92796; [1]) was “below the threshold”, the pKd (DLG4_1, P78352; [1]) was “below the threshold” and the pKd (FRMPD1, Q5SYB0; [1]) was “below the threshold”. The pKd (FRMPD4, Q14CM0; [1]) was “below the threshold”, the pKd (GRID2IP_1, A4D2P6; [1]) was “below the threshold” and the pKd (GRIP1_5, Q9Y3R0; [1]) was “below the threshold”. The pKd (GRIP1_7, Q9Y3R0; [1]) was “below the threshold”, the pKd (IL16_4, Q14005; [1]) was “below the threshold” and the pKd (Inadl_3, Q8NI35; [1]) was “below the threshold”. The pKd (LDB3, O75112; [1]) was “below the threshold”, the pKd (LIN7A, O14910; [1]) was “below the threshold” and the pKd (MAGI2_3, Q86UL8; [1]) was “below the threshold”. For the same binder, the pKd (MAGI2_6, Q86UL8; [1]) was “below the threshold”, the pKd (MPDZ_12, O75970; [1]) was “below the threshold” and the pKd (MPDZ_5, O75970; [1]) was “below the threshold”. The pKd (NHERF3_1, Q5T2W1; [1]) was 3.66, the pKd (NOS1, P29475; [1]) was “below the threshold” and the pKd (PARD3B_1, Q8TEW8; [1]) was “below the threshold”. The pKd (PARD3_3, Q8TEW0; [1]) was “below the threshold”, the pKd (PDLIM1, O00151; [1]) was “below the threshold” and the pKd (PDZRN3_1, Q9UPQ7; [1]) was “below the threshold”.

With NQLAWFDTDL [CTNNB1, P35222] the pKd (APBA2_1, Q99767; [2]) was “below the threshold”, the pKd (APBA3_1, O96018; [2]) was “below the threshold” and the pKd (CARD11, Q9BXL7; [2]) was “below the threshold”. The pKd (DLG3_1, Q92796; [2]) was “below the threshold”, the pKd (DLG4_1, P78352; [2]) was “below the threshold” and the pKd (FRMPD1, Q5SYB0; [2]) was “below the threshold”. For the same binder, the pKd (FRMPD4, Q14CM0; [2]) was 4.28, the pKd (GRID2IP_1, A4D2P6; [2]) was “below the threshold” and the pKd (GRIP1_5, Q9Y3R0; [2]) was “below the threshold”. The pKd (GRIP1_7, Q9Y3R0; [2]) was 3.63, the pKd (IL16_4, Q14005; [2]) was “below the threshold” and the pKd (Inadl_3, Q8NI35; [2]) was 3.7. The pKd (LDB3, O75112; [2]) was 3.99, the pKd (LIN7A, O14910; [2]) was “below the threshold” and the pKd (MAGI2_3, Q86UL8; [2]) was “below the threshold”. The pKd (MAGI2_6, Q86UL8; [2]) was 5.15, the pKd (MPDZ_12, O75970; [2]) was “below the threshold” and the pKd (MPDZ_5, O75970; [2]) was “below the threshold”. The pKd (NHERF3_1, Q5T2W1; [2]) was 3.66, the pKd (NOS1, P29475; [2]) was “below the threshold” and the pKd (PARD3B_1, Q8TEW8; [2]) was “below the threshold”. For the same binder, the pKd (PARD3_3, Q8TEW0; [2]) was “below the threshold”, the pKd (PDLIM1, O00151; [2]) was 4.16 and the pKd (PDZRN3_1, Q9UPQ7; [2]) was “below the threshold”.

GIFPTLTSPL [SHROOM3, Q8TF72] was tested, and the pKd (APBA2_1, Q99767; [3]) was “below the threshold”, the pKd (APBA3_1, O96018; [3]) was “below the threshold” and the pKd (CARD11, Q9BXL7; [3]) was “below the threshold”. For the same binder, the pKd (DLG3_1, Q92796; [3]) was “below the threshold”, the pKd (DLG4_1, P78352; [3]) was “below the threshold” and the pKd (FRMPD1, Q5SYB0; [3]) was “below the threshold”. The pKd (FRMPD4, Q14CM0; [3]) was “below the threshold”, the pKd (GRID2IP_1, A4D2P6; [3]) was “below the threshold” and the pKd (GRIP1_5, Q9Y3R0; [3]) was “below the threshold”. For the same binder, the pKd (GRIP1_7, Q9Y3R0; [3]) was “below the threshold”, the pKd (IL16_4, Q14005; [3]) was “below the threshold” and the pKd (Inadl_3, Q8NI35; [3]) was “below the threshold”. For the same binder, the pKd (LDB3, O75112; [3]) was “below the threshold”, the pKd (LIN7A, O14910; [3]) was “below the threshold” and the pKd (MAGI2_3, Q86UL8; [3]) was “below the threshold”. The pKd (MAGI2_6, Q86UL8; [3]) was “below the threshold”, the pKd (MPDZ_12, O75970; [3]) was “below the threshold” and the pKd (MPDZ_5, O75970; [3]) was “below the threshold”. For the same binder, the pKd (NHERF3_1, Q5T2W1; [3]) was 4.2, the pKd (NOS1, P29475; [3]) was “below the threshold” and the pKd (PARD3B_1, Q8TEW8; [3]) was “below the threshold”. For the same binder, the pKd (PARD3_3, Q8TEW0; [3]) was “below the threshold”, the pKd (PDLIM1, O00151; [3]) was 3.61 and the pKd (PDZRN3_1, Q9UPQ7; [3]) was 3.49.
